Assay results reported in US20020160975A1, “Conserved XIAP-interaction motif in caspase-9 and Smac/DIABLO for mediating apoptosis” (Thomas Jefferson University, priority 2001, published 2002).
Values belong to the molecule of their own block, whether it stands above or below them. Ends that are not written are not given here.

How the values were obtained:
XIAP [1] = biological target: T1, XIAP (Homo sapiens, UniProt P98170); assay: Cytochrome c-dependent caspase-3 activation in 293T S100 extracts containing XIAP (DEVD-AMC); type: biochemical; conditions: 25, 100 and 500 μM peptide, XIAP 10 nM, cytochrome c and dATP
T1 construct: made in house; host or cells: in vitro translation (cell-free)
T1 sequence (P98170 whole entry): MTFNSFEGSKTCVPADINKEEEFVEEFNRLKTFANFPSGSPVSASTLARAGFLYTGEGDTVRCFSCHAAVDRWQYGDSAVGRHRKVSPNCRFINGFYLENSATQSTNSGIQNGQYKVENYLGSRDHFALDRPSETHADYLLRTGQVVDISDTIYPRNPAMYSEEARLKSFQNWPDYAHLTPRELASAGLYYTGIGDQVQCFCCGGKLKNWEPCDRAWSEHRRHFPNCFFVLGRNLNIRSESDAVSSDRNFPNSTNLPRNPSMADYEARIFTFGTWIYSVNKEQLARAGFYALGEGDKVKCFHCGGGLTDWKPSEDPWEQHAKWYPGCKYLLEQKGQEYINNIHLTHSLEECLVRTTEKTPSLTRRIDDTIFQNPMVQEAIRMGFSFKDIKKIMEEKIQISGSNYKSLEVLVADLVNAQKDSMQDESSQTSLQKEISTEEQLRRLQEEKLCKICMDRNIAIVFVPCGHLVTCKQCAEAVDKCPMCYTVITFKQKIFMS
Protocol: The activity of caspase-3 in the S100 extracts was measured using the peptide substrate DEVD-AMC.

full length XIAP = biological target: T2, full length XIAP (Homo sapiens, UniProt P98170); assay: In vitro interaction assay of GST fusion proteins with 35S-labeled XIAP; type: binding; conditions: C-terminal GST fusion proteins immobilized onto glutathione-affinity resin
T2 construct: full length XIAP or the isolated BIR3 domain of XIAP; made in house; host or cells: in vitro translation (cell-free)
T2 sequence (P98170 whole entry, the tested form may be a part): as the sequence (P98170 whole entry) above
From the text: (§1) The C-terminal GST fusion proteins were expressed in bacteria and then immobilized onto glutathione-affinity resin. […] The caspase-9 deletion mutants used in these studies are represented by bar diagrams above the panel in FIG. 10.

[2] = biological target: T3, isolated BIR3 domain of XIAP (Homo sapiens, UniProt P98170); assay: In vitro interaction assay of GST fusion proteins with 35S-labeled BIR3; type: binding; conditions: C-terminal GST fusion proteins immobilized onto glutathione-affinity resin
T3 construct: full length XIAP or the isolated BIR3 domain of XIAP; made in house; host or cells: in vitro translation (cell-free)
From the text: as §1

[3] = biological target: T4, Smac/DIABLO binding to BIR3 (Homo sapiens, UniProt P98170); assay: In vitro binding of BIR3 to immobilized Smac-GST with or without competing peptide; conditions: 200 μM peptide; Smac-GST immobilized onto glutathione resin
T4 construct: Smac-GST was immobilized onto glutathione resin and then incubated with BIR3

[4] = biological target: T5, caspase-9-p12 binding to BIR3 (Homo sapiens, UniProt P98170); assay: In vitro binding of BIR3 to immobilized p12-GST with or without competing peptide; conditions: 200 μM peptide; p12-GST immobilized onto glutathione resin
T5 construct: made in house; host or cells: bacteria (GST fusion)
Protocol: as §1
The interactions were analyzed as in Example 3.

XIAP [5] = biological target: T1, XIAP; assay: Far Western blot analysis with 35S-labeled XIAP; type: binding
Protocol: Recombinant WT caspase-9, E306/D315/D330A, D315/330A, or D315A caspase-9 mutants, p12, p10, or Smac/DIABLO GST-fusion proteins were fractionated by SDS-PAGE and then blotted onto a nitrocellulose membrane using standard Western blotting technique. The proteins on the nitrocellulose membrane were denatured in a buffer (10 mM sodium phosphate pH 7.4, 150 mM sodium chloride, 5 mM magnesium chloride and 1 mM DTT) containing 6 M guanidine-HCl. These proteins were then renatured by gradual reduction of guanidine-HCl to 0.3 M. The membrane was blocked overnight in the same buffer containing 5% non-fat dry milk. The membrane was then probed with ^35S-labeled in vitro translated XIAP in the same buffer with 1% non-fat dry milk. The membrane was washed at least three times and then exposed to X-ray film.

[6] = biological target: T6, X-linked inhibitor of apoptosis protein (XIAP), full length (UniProt P98170 1-497); assay: gel filtration on Superose 6 and immunoblot of fractions
T6 construct: Used as in vitro translated 35S-labeled full length XIAP (pull-down, Far western) or as purified XIAP (holoenzyme experiments); also called full length XIAP; 35S-labeled XIAP
T6 sequence (P98170 whole entry): as above

procaspase-3 C163A = assay: Procaspase-3 processing and DEVD-AMC cleavage by caspase-9 reconstituted with Apaf-1; type: biochemical; conditions: 20 nM each with purified Apaf-1; cytochrome c and dATP
Protocol: Procaspase-3 processing assays were generally performed as described in Srinivasula, S. M. et al. J Biol Chem 275:36152-36157, 2000. In this assay, purified recombinant procaspase-3 C163A was incubated with equal amounts of recombinant WT or triple mutant caspase-9 protein (20 nM) in the presence (+) or absence (−) of recombinant Apaf-1 (20 nM). The reaction mixtures were stimulated with cytochrome c (50 ng/μl) and dATP (1 mM), incubated for 0-60 minutes at 30° C., and then analyzed by SDS-PAGE and western blot analysis (FIG. 3).
Caspase-3 enzymatic assays with the tetrapeptide substrate DEVD-AMC were generally performed as described in Srinivasula, S. M. et al. J Biol Chem 275:36152-36157, 2000. In this caspase-3 enzymatic assay, caspase-9-depleted S100 extracts from Apaf-1-deficient mouse embryonic fibroblasts were incubated with equal amounts of recombinant WT and triple mutant caspase-9 proteins together with Apaf-1, cytochrome c and dATP. The controls used in these assays represent WT and triple mutant caspase-9 proteins incubated as above without cytochrome c and dATP. The reactions were carried out in the presence of 100 μM of DEVD-AMC for 0-120 minutes, and substrate cleavage was measured by luminescence spectrometry using a Perkin Elmer Luminescence spectrometer and represented in arbitrary spectrometric units.

[7] = biological target: T7, isolated BIR3 domain of XIAP, P98170
T7 chain: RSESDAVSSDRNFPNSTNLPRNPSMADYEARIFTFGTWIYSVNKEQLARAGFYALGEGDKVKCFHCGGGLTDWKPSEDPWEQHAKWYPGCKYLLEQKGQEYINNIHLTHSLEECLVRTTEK

[8] = biological target: T8, E314S mutant BIR3 domain of XIAP (UniProt P98170 238-358, limits assumed); assay: GST pull-down of 35S-labeled E314S BIR3
T8 construct: domain: BIR3; 35S-labeled, in vitro translated

[9] = biological target: T6, X-linked inhibitor of apoptosis protein …; assay: Far western with 35S-labeled XIAP
Protocol: The proteins on the nitrocellulose membrane were denatured in a buffer (10 mM sodium phosphate pH 7.4, 150 mM sodium chloride, 5 mM magnesium chloride and 1 mM DTT) containing 6 M guanidine-HCl. These proteins were then renatured by gradual reduction of guanidine-HCl to 0.3 M. The membrane was blocked overnight in the same buffer containing 5% non-fat dry milk. […] The membrane was washed at least three times and then exposed to X-ray film.

XIAP-BIR3 = biological target: T9, XIAP-BIR3 (Homo sapiens, UniProt P98170); assay: DEVD-AMC cleaving activity in caspase-9-depleted S100 extracts with or without XIAP-BIR3; type: biochemical; conditions: 10 nM caspase-9 protein; XIAP-BIR3 20 nM; DEVD-AMC 100 μM; 30 minutes
T9 construct: purified XIAP-BIR3 (20 nM)
Protocol: To test for enzymatic activity, caspase-9-depleted S100 extracts (20 μg) from Apaf-1-deficient mouse embryonic fibroblasts were incubated with recombinant Apaf-1, cytochrome c, dATP, and equal amounts (10 nM) of WT caspase-9 or the caspase-9 Δlinker mutant protein in the presence (+) or absence (−) of purified XIAP-BIR3 (20 nM). The reactions were carried out in the presence of the peptide substrate DEVD-AMC (100 μM) for 30 minutes, and substrate cleavage was measured by luminescence spectrometry.
To test for enzymatic activity, caspase-9-depleted S100 extracts (20 μg) from Apaf-1-deficient mouse embryonic fibroblasts were incubated with recombinant Apaf-1, cytochrome c, dATP, and equal amounts (10 nM) of WT caspase-9, caspase-9 AT316, 317SG, or AT316, 317GG mutant proteins in the presence (+) or absence (−) of purified XIAP-BIR3 (20 nM). The reactions were carried out in the presence of the peptide substrate DEVD-AMC (100 μM) for 30 minutes, and substrate cleavage was measured by luminescence spectrometry.

Molecule: ATPFQEGLRTFDQLD [linker peptide]
promoting caspase-3 activation in XIAP containing extracts (XIAP [1]): as effective in promoting caspase-3 activation as the Smac-N5 or N7 peptides
interaction with full length XIAP (full length XIAP): able to interact
interaction with isolated BIR3 domain of XIAP [2]: able to interact
inhibition of Smac/DIABLO binding to BIR3 [3]: completely inhibited

B2: caspase-9 linker deletion mutant (residues 316 to 330 of SEQ ID NO:1 deleted) (protein)
chain 1: MDEADRRLLRRCRLRLVEELQVDQLWDALLSRELFRPHMIEDIQRAGSGSRRDQARQLIIDLETRGSQALPLFISCLEDTGQDMLASFLRTNRQAAKLSKPTLENLTPVVLRPEIRKPEVLRPETPRPVDIGSGGFGDVGALESLRGNADLAYILSMEPCGHCLIINNVNFCRESGLRTRTGSNIDCEKLRRRFSSLHFMVEVKGDLTAKKMVLALLELAQQDHGALDCCVVVILSHGCQASHLQFPGAVYGTDGCPVSVEKIVNIFNGTSCPSLGGKPKLFFIQACGGEQKDHGFEVASTSPEDESPGSNPEPD
chain 2: AISSLPTPSDIFVSYSTFPGFVSWRDPKSGSWYVETLDDIFEQWAHSEDLQSLLLRVANAVSVKGIYKQMPGCFNFLRKKLFFKTS
DEVD-AMC cleaving activity in S100 extracts with or without XIAP-BIR3 (20 nM) [7]: the deletion of the linker region did not inhibit enzymatic activity, even in the presence of XIAP-BIR3

B4: Δlinker: caspase-9 with residues 316 to 330 of SEQ ID NO:1 deleted (protein, listed as Homo sapiens)
chain: MDEADRRLLRRCRLRLVEELQVDQLWDALLSRELFRPHMIEDIQRAGSGSRRDQARQLIIDLETRGSQALPLFISCLEDTGQDMLASFLRTNRQAAKLSKPTLENLTPVVLRPEIRKPEVLRPETPRPVDIGSGGFGDVGALESLRGNADLAYILSMEPCGHCLIINNVNFCRESGLRTRTGSNIDCEKLRRRFSSLHFMVEVKGDLTAKKMVLALLELAQQDHGALDCCVVVILSHGCQASHLQFPGAVYGTDGCPVSVEKIVNIFNGTSCPSLGGKPKLFFIQACGGEQKDHGFEVASTSPEDESPGSNPEPDAISSLPTPSDIFVSYSTFPGFVSWRDPKSGSWYVETLDDIFEQWAHSEDLQSLLLRVANAVSVKGIYKQMPGCFNFLRKKLFFKTS
ability to interact with BIR3 (Far western, FIG. 12B) (XIAP [5]; recombinant caspase-9 mutants): lost significantly the ability to interact
enzymatic activity (DEVD-AMC cleaving) in presence of XIAP-BIR3 (XIAP-BIR3): did not inhibit enzymatic activity, even in the presence of XIAP-BIR3

Continued, in another order:

inhibition of binding of caspase-9-p12 to BIR3 [4]: completely inhibited
Molecule: AVPIAQK [Smac-N7, AVPIAQK]

binding of XIAP by Far Western (XIAP [5]; proteins on nitrocellulose membrane, denatured and renatured): not able to bind
binding result [6]: no binding
B1: triple mutant procaspase-9 (E306/D315/D330A) (enzyme)
chain: MDEADRRLLRRCRLRLVEELQVDQLWDALLSRELFRPHMIEDIQRAGSGSRRDQARQLIIDLETRGSQALPLFISCLEDTGQDMLASFLRTNRQAAKLSKPTLENLTPVVLRPEIRKPEVLRPETPRPVDIGSGGFGDVGALESLRGNADLAYILSMEPCGHCLIINNVNFCRESGLRTRTGSNIDCEKLRRRFSSLHFMVEVKGDLTAKKMVLALLELAQQDHGALDCCVVVILSHGCQASHLQFPGAVYGTDGCPVSVEKIVNIFNGTSCPSLGGKPKLFFIQACGGEQKDHGFEVASTSPEDASPGSNPEPAATPFQEGLRTFDQLAAISSLPTPSDIFVSYSTFPGFVSWRDPKSGSWYVETLDDIFEQWAHSEDLQSLLLRVANAVSVKGIYKQMPGCFNFLRKKLFFKTS
notes: Unprocessed protein; also called uncleavable caspase-9; mutant caspase-9
processing procaspase-3 C163A or inducing DEVD-AMC cleavage (procaspase-3 C163A): as efficient as the fully processed WT caspase-9

binding result [8]: no binding
binding result [9]: binds
B3: Caspase-9-p12 C-terminal GST fusion protein (residues 316-416 of SEQ ID NO:1) (other, not shown: a dimerising Fc or GST)
chain: ATPFQEGLRTFDQLDAISSLPTPSDIFVSYSTFPGFVSWRDPKSGSWYVETLDDIFEQWAHSEDLQSLLLRVANAVSVKGIYKQMPGCFNFLRKKLFFKTS
notes: also called p12-GST; GST-p12
